Assay results reported in paper PMC3483405.

Molecular target: Homo sapiens selenoprotein S U188C (human) (UniProt Q9BQE4)
Assay: SEC

- stoichiometry N: 2
Substance: Homo sapiens selenoprotein S U188C (from UniProt Q9BQE4 1-189) (natural protein)
